Residue numbers refer to the chain shown, from its start. In names and notes the source's numbering stands.
T1: CD226 (Homo sapiens (Human), UniProt Q15762 19-336)
T1 construct: on transfected cells
T1 sequence: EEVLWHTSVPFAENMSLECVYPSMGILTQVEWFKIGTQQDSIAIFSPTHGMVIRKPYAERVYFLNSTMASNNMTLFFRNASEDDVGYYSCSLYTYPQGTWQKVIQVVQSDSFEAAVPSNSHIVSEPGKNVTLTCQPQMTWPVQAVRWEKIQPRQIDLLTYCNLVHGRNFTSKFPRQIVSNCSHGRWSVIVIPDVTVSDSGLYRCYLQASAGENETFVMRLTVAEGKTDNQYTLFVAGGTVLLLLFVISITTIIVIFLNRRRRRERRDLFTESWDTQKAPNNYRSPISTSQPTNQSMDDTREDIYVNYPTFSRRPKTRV

T2: TIGIT (Homo sapiens (Human), UniProt Q495A1 22-244)
T2 construct: on transfected cells
T2 sequence: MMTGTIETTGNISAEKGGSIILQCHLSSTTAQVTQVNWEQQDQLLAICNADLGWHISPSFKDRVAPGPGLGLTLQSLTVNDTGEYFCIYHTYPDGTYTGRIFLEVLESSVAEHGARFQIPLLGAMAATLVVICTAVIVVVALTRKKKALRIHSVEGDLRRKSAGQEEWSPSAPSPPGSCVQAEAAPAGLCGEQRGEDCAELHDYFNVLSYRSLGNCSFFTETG

T3: CD96 (UniProt P40200 22-585, limits assumed)
T3 construct: whole, on cells; on transfected cells
T3 sequence (looked up): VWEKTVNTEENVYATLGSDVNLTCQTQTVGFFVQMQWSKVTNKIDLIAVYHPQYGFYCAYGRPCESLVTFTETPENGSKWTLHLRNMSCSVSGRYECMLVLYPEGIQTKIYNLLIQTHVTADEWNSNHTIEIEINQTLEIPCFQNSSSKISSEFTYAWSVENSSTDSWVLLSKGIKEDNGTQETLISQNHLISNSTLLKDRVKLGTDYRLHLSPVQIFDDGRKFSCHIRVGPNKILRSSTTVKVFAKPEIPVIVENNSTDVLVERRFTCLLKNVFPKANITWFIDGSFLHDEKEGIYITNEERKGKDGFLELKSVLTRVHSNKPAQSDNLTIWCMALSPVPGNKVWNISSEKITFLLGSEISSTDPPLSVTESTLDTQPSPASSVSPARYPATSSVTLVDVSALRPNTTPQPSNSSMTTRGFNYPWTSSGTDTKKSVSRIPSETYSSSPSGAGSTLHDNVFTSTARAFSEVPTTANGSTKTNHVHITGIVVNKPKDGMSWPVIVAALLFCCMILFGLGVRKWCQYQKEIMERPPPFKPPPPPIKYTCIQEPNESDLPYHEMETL

T4: human TIGIT expressed on cells (Jurkat/TIGIT cells) (human, UniProt Q495A1 22-244)
T4 sequence: T2 sequence

B1: Wildtype CD155 IgV Fc (Fc fusion, not shown: a dimerising Fc or GST)
chain: WPPPGTGDVVVQAPTQVPGFLGDSVTLPCYLQVPNMEVTHVSQLTWARHGESGSMAVFHQTQGPSYSESKRLEFVAARLGAELRNASLRMFGLRVEDEGNYTCLFVTFPQGSRSVDIWLRVL
B2: variant CD155 IgV-Fc P18L, L79V, F91S (Fc fusion, not shown: a dimerising Fc or GST)
chain: B1 chain with P18L, L79V, F91S
B3: variant CD155 IgV-Fc A81V, L83P (Fc fusion, not shown: a dimerising Fc or GST)
chain: B1 chain with A81V, L83P
B4: PD-L2/CD155 Stack 3 (Fc fusion)
chain: WPPPGTGDVVVQAPTQVSGFLGDSVTLPCYLQVPNMEVTHVSQLTWARHGESGSMAVFHQTQGPWYAESKRLEFVAARLGAELRNASLRMFGLRVEDEGNYTCQFVTFPQRSRSVDIWLRVLGGGGSGGGGSGGGGSLFTVTVPKELYIIEQGSNVTLECNFDTGSHVNLGAITASLQKVENDASPHRERATLLEEQLPLGRALFHIPQVQVRDEGQYRCIIIYGDAWDYKYLTLKVKAGGGGSGGGGSEPKSSDKTHTCPPCPAPEAEGAPSVFLFPPKPKDTLMISRTPEVTCVVVDVSHEDPEVKFNWYVDGVEVHNAKTKPREEQYNSTYRVVSVLTVLHQDWLNGKEYKCKVSNKALPAPIEKTISKAKGQPREPQVYTLPPSRDELTKNQVSLTCLVKGFYPSDIAVEWESNGQPENNYKTTPPVLDSDGSFFLYSKLTVDKSRWQQGNVFSCSVMHEALHNHYTQKSLSLSPGK
notes: Homodimer; also called (CD155 IgV) (G4S)3 (PD-L2 IgV) (G4S)2 Fc
B5: PD-L2/CD155 Stack 5 (Fc fusion)
chain: EPKSSDKTHTCPPCPAPEAEGAPSVFLFPPKPKDTLMISRTPEVTCVVVDVSHEDPEVKFNWYVDGVEVHNAKTKPREEQYNSTYRVVSVLTVLHQDWLNGKEYKCKVSNKALPAPIEKTISKAKGQPREPQVYTLPPSRDELTKNQVSLTCLVKGFYPSDIAVEWESNGQPENNYKTTPPVLDSDGSFFLYSKLTVDKSRWQQGNVFSCSVMHEALHNHYTQKSLSLSPGKGGGGSGGGGSGGGGSWPPPGTGDVVVQAPTQVSGFLGDSVTLPCYLQVPNMEVTHVSQLTWARHGESGSMAVFHQTQGPWYAESKRLEFVAARLGAELRNASLRMFGLRVEDEGNYTCQFVTFPQRSRSVDIWLRVLGGGGSGGGGSGGGGSLFTVTVPKELYIIEQGSNVTLECNFDTGSHVNLGAITASLQKVENDASPHRERATLLEEQLPLGRALFHIPQVQVRDEGQYRCIIIYGDAWDYKYLTLKVKA
notes: Homodimer; also called Fc (G4S)3 (CD155 IgV) (G4S)3 (PD-L2 IgV)
B6: PD-L2/CD155 Stack 2 (Fc fusion)
chain: LFTVTVPKELYIIEQGSNVTLECNFDTGSHVNLGAITASLQKVENDASPHRERATLLEEQLPLGRALFHIPQVQVRDEGQYRCIIIYGDAWDYKYLTLKVKAGGGGSGGGGSEPKSSDKTHTCPPCPAPEAEGAPSVFLFPPKPKDTLMISRTPEVTCVVVDVSHEDPEVKFNWYVDGVEVHNAKTKPREEQYNSTYRVVSVLTVLHQDWLNGKEYKCKVSNKALPAPIEKTISKAKGQPREPQVYTLPPSRDELTKNQVSLTCLVKGFYPSDIAVEWESNGQPENNYKTTPPVLDSDGSFFLYSKLTVDKSRWQQGNVFSCSVMHEALHNHYTQKSLSLSPGKGGGGSGGGGSGGGGSWPPPGTGDVVVQAPTQVSGFLGDSVTLPCYLQVPNMEVTHVSQLTWARHGESGSMAVFHQTQGPWYAESKRLEFVAARLGAELRNASLRMFGLRVEDEGNYTCQFVTFPQRSRSVDIWLRVL
notes: Homodimer; also called (PD-L2 IgV) (G4S)2 Fc (G4S)3 (CD155 IgV)
B7: PD-L2/CD155 Stack 4 (Fc fusion)
chain: LFTVTVPKELYIIEQGSNVTLECNFDTGSHVNLGAITASLQKVENDASPHRERATLLEEQLPLGRALFHIPQVQVRDEGQYRCIIIYGDAWDYKYLTLKVKAGGGGSGGGGSGGGGSWPPPGTGDVVVQAPTQVSGFLGDSVTLPCYLQVPNMEVTHVSQLTWARHGESGSMAVFHQTQGPWYAESKRLEFVAARLGAELRNASLRMFGLRVEDEGNYTCQFVTFPQRSRSVDIWLRVLGGGGSGGGGSEPKSSDKTHTCPPCPAPEAEGAPSVFLFPPKPKDTLMISRTPEVTCVVVDVSHEDPEVKFNWYVDGVEVHNAKTKPREEQYNSTYRVVSVLTVLHQDWLNGKEYKCKVSNKALPAPIEKTISKAKGQPREPQVYTLPPSRDELTKNQVSLTCLVKGFYPSDIAVEWESNGQPENNYKTTPPVLDSDGSFFLYSKLTVDKSRWQQGNVFSCSVMHEALHNHYTQKSLSLSPGK
notes: Homodimer; also called (PD-L2 IgV) (G4S)3 (CD155 IgV) (G4S)2 Fc
B8: PD-L2/CD155 Stack 6 (Fc fusion)
chain: EPKSSDKTHTCPPCPAPEAEGAPSVFLFPPKPKDTLMISRTPEVTCVVVDVSHEDPEVKFNWYVDGVEVHNAKTKPREEQYNSTYRVVSVLTVLHQDWLNGKEYKCKVSNKALPAPIEKTISKAKGQPREPQVYTLPPSRDELTKNQVSLTCLVKGFYPSDIAVEWESNGQPENNYKTTPPVLDSDGSFFLYSKLTVDKSRWQQGNVFSCSVMHEALHNHYTQKSLSLSPGKGGGGSGGGGSGGGGSLFTVTVPKELYIIEQGSNVTLECNFDTGSHVNLGAITASLQKVENDASPHRERATLLEEQLPLGRALFHIPQVQVRDEGQYRCIIIYGDAWDYKYLTLKVKAGGGGSGGGGSGGGGSWPPPGTGDVVVQAPTQVSGFLGDSVTLPCYLQVPNMEVTHVSQLTWARHGESGSMAVFHQTQGPWYAESKRLEFVAARLGAELRNASLRMFGLRVEDEGNYTCQFVTFPQRSRSVDIWLRVL
notes: Homodimer; also called Fc (G4S)3 (PD-L2 IgV) (G4S)3 (CD155 IgV)
B9: Wild Type CD155 full ECD Fc (Fc fusion)
chain: WPPPGTGDVVVQAPTQVPGFLGDSVTLPCYLQVPNMEVTHVSQLTWARHGESGSMAVFHQTQGPSYSESKRLEFVAARLGAELRNASLRMFGLRVEDEGNYTCLFVTFPQGSRSVDIWLRVLAKPQNTAEVQKVQLTGEPVPMARCVSTGGRPPAQITWHSDLGGMPNTSQVPGFLSGTVTVTSLWILVPSSQVDGKNVTCKVEHESFEKPQLLTVNLTVYYPPEVSISGYDNNWYLGQNEATLTCDARSNPEPTGYNWSTTMGPLPPFAVAQGAQLLIRPVDKPINTTLICNVTNALGARQAELTVQVKEGPPSEHSGISRN
notes: not shown: Fc and linker not specified
B10: PD-L2/CD155 Stack 1 (Fc fusion)
chain: WPPPGTGDVVVQAPTQVSGFLGDSVTLPCYLQVPNMEVTHVSQLTWARHGESGSMAVFHQTQGPWYAESKRLEFVAARLGAELRNASLRMFGLRVEDEGNYTCQFVTFPQRSRSVDIWLRVLGGGGSGGGGSEPKSSDKTHTCPPCPAPEAEGAPSVFLFPPKPKDTLMISRTPEVTCVVVDVSHEDPEVKFNWYVDGVEVHNAKTKPREEQYNSTYRVVSVLTVLHQDWLNGKEYKCKVSNKALPAPIEKTISKAKGQPREPQVYTLPPSRDELTKNQVSLTCLVKGFYPSDIAVEWESNGQPENNYKTTPPVLDSDGSFFLYSKLTVDKSRWQQGNVFSCSVMHEALHNHYTQKSLSLSPGKGGGGSGGGGSGGGGSLFTVTVPKELYIIEQGSNVTLECNFDTGSHVNLGAITASLQKVENDASPHRERATLLEEQLPLGRALFHIPQVQVRDEGQYRCIIIYGDAWDYKYLTLKVKA
notes: Homodimer; also called (CD155 IgV)-(G4S)2-Fc-(G4S)3 (PD-L2 IgV)
B11: Wild Type PD-L2 full ECD Fc (Fc fusion)
chain: LFTVTVPKELYIIEHGSNVTLECNFDTGSHVNLGAITASLQKVENDTSPHRERATLLEEQLPLGKASFHIPQVQVRDEGQYQCIIIYGVAWDYKYLTLKVKASYRKINTHILKVPETDEVELTCQATGYPLAEVSWPNVSVPANTSHSRTPEGLYQVTSVLRLKPPPGRNFSCVFWNTHVRELTLASIDLQSQMEPRTHPT
notes: as for B9
B12: PD-L2 SIP with wildtype PD-L2 IgV (SEQ ID NO:115), Avitag and His tag (ligand)
chain: LFTVTVPKELYIIEHGSNVTLECNFDTGSHVNLGAITASLQKVENDTSPHRERATLLEEQLPLGKASFHIPQVQVRDEGQYQCIIIYGVAWDYKYLTLKVKAGLNDIFEAQKIEWHEHHHHHH
notes: also called PD-L2 secreted immunomodulatory protein
B13: PD-L2 SIP with variant PD-L2 IgV H15Q,T47A,K65R,S67L,Q82R,V89D (SEQ ID NO:328), Avitag and His tag (ligand)
chain: B12 chain with H15Q, T47A, K65R, S67L, Q82R, V89D
notes: also called variant PD-L2 SIP
B14: PD-L2 SIP with variant PD-L2 IgV H15Q,V31M,S67L,Q82R,V89D (SEQ ID NO:316), Avitag and His tag (ligand)
chain: B12 chain with H15Q, V31M, S67L, Q82R, V89D
notes: also called variant PD-L2 SIP
B15: PD-L2 SIP with variant PD-L2 IgV H15Q,T47A,S67L,R76G,Q82R,V89D (SEQ ID NO:342), Avitag and His tag (ligand)
chain: B12 chain with H15Q, T47A, S67L, R76G, Q82R, V89D
notes: also called variant PD-L2 SIP

What follows are binders tested against T1, CD226 (assay: flow cytometry, transfected cells).

MFI parental ratio [ratio]	Binder
1	B1
1.4	B2
1.1	B3

What follows are binders tested against T2, TIGIT (assay: flow cytometry, transfected cells).

MFI parental ratio [ratio]	Binder
1	B1
1.5	B2
1.1	B3

The binders below were run against T3, CD96 (assay: flow cytometry, transfected cells).

MFI parental ratio [ratio]	Binder
1	B1
1.1	B2
0.8	B3

These binders were tested against T5, human PD-1 expressed on cells (Jurkat/PD-1 cells) (human, UniProt Q15116 21-288) (assay: flow cytometry, Jurkat/PD-1 cells).
T5 construct: also called PDCD1
T5 sequence (Q15116 21-288): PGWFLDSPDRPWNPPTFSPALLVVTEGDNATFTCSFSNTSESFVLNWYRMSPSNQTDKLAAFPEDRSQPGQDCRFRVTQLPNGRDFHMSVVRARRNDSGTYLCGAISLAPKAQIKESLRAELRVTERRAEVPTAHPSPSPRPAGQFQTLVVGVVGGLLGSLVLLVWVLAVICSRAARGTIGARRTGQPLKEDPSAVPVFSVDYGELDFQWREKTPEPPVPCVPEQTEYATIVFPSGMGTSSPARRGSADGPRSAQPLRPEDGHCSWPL

MFI at 6.25 nM [MFI]	Binder
91	B4
108	B5
16300	B6
9220	B7
66	B8
64	B9

Each binder was assayed against T4, human TIGIT expressed on cells … (assay: flow cytometry, Jurkat/TIGIT cells).

MFI at 6.25 nM [MFI]	Binder
22300	B4
19900	B10
5490	B5
9100	B6
14500	B7
9970	B8
46	B11

What follows are binders tested against T6, PD-1 stably expressed on Jurkat/IL-2 reporter cells (Jurkat/PD-1) (human, UniProt Q15116 21-288) (assay: culture supernatant on PD-1+ Jurkat cells, surface bound PD-L2 detected with anti-his-APC by flow cytometry).
T6 construct: also called Jurkat/PD-1 cells; PD-1+ Jurkat cells
T6 sequence (Q15116 21-288): as above

binding result	Binder
binds	B12
binds	B13
binds	B14
binds	B15
